This note sets out measurements from patent US20250188136A1, “AV3 MUTANT POLYPEPTIDES FOR PEST CONTROL” (Vestaron Corporation, priority 2021, published 2025).

One data set concerns houseflies. The data set can be described thus: Housefly injection assay (knock-down). Format: in vivo, Musca domestica. As to conditions: for Activity: knock-down at 5 hours post-injection normalized to Av3b, Yes = insecticidal activity maintained; for housefly knock-down / insecticidal activity relative to Av3b: knock-down at 5 hours post-injection. As to the method:
An exemplary housefly injection bioassay is as follows: conditioned media is serially diluted to generate full dose-response curves from the housefly injection bioassay. Before injection, adult houseflies (Musca domestica) are immobilized with CO2, and 12-18 mg houseflies are selected for injection. A microapplicator, loaded with a 1 cc syringe and 30-gauge needle, is used to inject 0.5 μL per fly, doses of serially diluted conditioned media samples into houseflies through the body wall of the dorsal thorax. The injected houseflies are placed into closed containers with moist filter paper and breathing holes on the lids, and they are examined by knock-down ratio or by mortality scoring at 24 hours post-injection. Normalized yields are calculated. Peptide yield means the peptide concentration in the conditioned media in units of mg/L. However, peptide yields are not always sufficient to accurately compare the strain production rate. […] A culture with a high cell density may produce a higher concentration of the peptide in the media, even though the peptide production rate of the strain is lower than another strain which has a higher production rate. Accordingly, the term “normalized yield” is created by dividing the peptide yield with the cell density in the corresponding culture and this allows a better comparison of the peptide production rate between strains. The cell density is represented by the light absorbance at 600 nm with a unit of “A” (Absorbance unit).
A housefly injection assay was performed to determine the activity of the new mutants. Adult houseflies were immobilized with CO2 for 10 minutes, and then transferred to a CO2 pan to keep immobilized. Flies with weight between 12-20 mg were picked for injection. The new mutants and Av3b control were diluted in water to proper doses for injection. Next, a 0.5 μL peptide solution was injected into each housefly at the dorsal thorax using a hand-microapplicator with 1 cc all-glass syringe with 30 gauge straight needle. The injected flies were then transferred to a 2 oz. transparent portion container with a wet #4 filter paper. Fly knock-down was assessed at 5-hours post-injection. The activity of a given new mutant was then normalized to the activity of the Av3b production strain (control), using the fly knock-down score at 5 hours.

The nature of data set [1]: Proteolytic resistance of Av3b mutants during production-strain fermentation (rpHPLC). Format: physicochemical. The note with it: for Degradation?: mutant strain fermentation at pH 6.5, 140 hours, rpHPLC; for degradation product during fermentation (HPLC): production strain fermentation at pH 6.5, rpHPLC. As to the method: The mutants in the table below were evaluated for stability in fermentation beer. Fermentation conditions and HPLC analysis were performed as described above. The mutant production strains were generated using YCT306 K. lactis strain. The production of mutants was performed as described in Example 2; fermentation conditions were performed using the same fermentation process described above regarding the Av3b production strain, with pH control at pH 6.5. […] To identify the mutant with proteolytic resistance, the mutant strains were grown under the same fermentation conditions as Av3b, and samples were taken throughout the fermentation process. The samples taken at 140 hour of fermentation process were analyzed in rpHPLC.

Data set [2] is described as follows: Stability of purified peptide spiked into Av3b fermentation beer (rpHPLC). Format: physicochemical. As to the method: To determine the stability of the new mutants, Av3bM19, Av3bM23, Av3bM24, Av3bM25, Av3bM27, and Av3bM28 were purified and incubated in Av3b fermentation beer. The mutants were purified by cation-exchange chromatography using a GE SP-Sephadex C-25 column. The column was first calibrated with 30 mM sodium citrate buffer at pH 3.0. Then, the culture supernatant containing the secreted mutant peptide was loaded into the column to let the mutant peptide bind to the resin. The column was then washed with 30 mM sodium citrate buffer, pH 3.0, followed by washing with 30 mM sodium acetate, pH 4.0. Next, the bound mutant peptide was eluted by 1 M or 2 M NaCl with 30 mM sodium acetate, pH 4.0. The elution was then concentrated and buffer-exchanged to 30 mM sodium acetate, pH 4.0 using a 1 kD cutoff spin concentrator.
After purification, each of the mutants, Av3bM19, Av3bM23, Av3bM24, Av3bM25, Av3bM27, and Av3bM28, were evaluated for stability by spiking them into Av3b strain fermentation beer at pH 6.5. As a negative control, Av3b was evaluated in a pH 4.0 buffer. As a positive control, purified Av3b was evaluated by spiking into the same Av3b fermentation beer at pH 6.5. All stability experiments were performed at room temperature. […] The amount of peptide remaining relative to the beginning was determined by normalizing the peak area at different time to the one at 0 hour for each treatment. The degradation trend is visualized by the bar graph of the relative remaining peptide amount trend.

Entries after “also recorded” stand apart in the source; their conditions may differ. Ends that are not written are not given here.

Take “KSCCPCYWGGCPWGTTCYPNGCDGPK (Av3bM20; VARIANT (1)..(26) Recombinant variant of Anemonia viridis Av3 peptide)”: the Activity entry in the data set on houseflies is reported as “No”.

Take “KSCCPCYWPPCPWGQNCYPEGCSGPK (ends and bridges not checked; cysteine pairing not given here) [Av3bM26]”: the Activity result in the data set with houseflies is recorded as “No”. With “KSCCPCYWGGCPWGQNCYPEGCSGPD (ends and bridges not checked; cysteine pairing not given here) [Av3bM100]”, in data set [1], the “Degradation?” value is on record as “Yes”. On to “KSCCPCYWGGCPWGQNCYPEGCSGPT (ends and bridges not checked; cysteine pairing not given here) [Av3bM111]”, for which, in data set [1], the “Degradation?” value is listed as “Yes”. On to “KSCCPCYWGGCPWGQNCYPEGCSGPA (ends and bridges not checked; cysteine pairing not given here) [Av3bM97]”, for which, in data set [1], the “Degradation?” value is “Yes”. Take “KSCCPCYWPGCPWGQNCYPEGCSGPK (ends and bridges not checked; cysteine pairing not given here) [Av3bM25]”: in the data set on houseflies, the “housefly knock-down / insecticidal activity relative to Av3b” value is “without a concomitant reduction in housefly knock-down activity; also recorded: insecticidal activity” and the Activity result was “Yes”. Consider “QSCCPCYWGGCPWGQNCYPEGCSGPH (ends and bridges not checked; cysteine pairing not given here) [Av3bM30]”, for which the Activity result with houseflies is listed as “No”. In the case of “SSCCPCYWGGCPWGQNCYPEGCSGPK (ends and bridges not checked; cysteine pairing not given here) [Av3bM32]”, in the data set on houseflies, the Activity result is given as “No”. In the case of “TSCCPCYWGGCPWGQNCYPEGCSGPK (ends and bridges not checked; cysteine pairing not given here) [Av3bM31]”, in the data set on houseflies, the Activity entry is “No”. As for “KSCCPCYWPGCPWGQNCYPEGCRGPD (ends and bridges not checked; cysteine pairing not given here) [Av3bM125]”, the half-degradation time in data set [2] (Av3b production fermentation beer pH 6.5, room temperature (Example 12, FIG. 39)) worked out at 369 h. Besides, the “resistance to fermentation beer protease cleavage compared to Av3b” value in data set [2] (spiked into Av3b fermentation beer pH 6.5, room temperature) is on record as “dramatically improved resistance to degradation”. Regarding “KSCCPCYWGGCPWGQNCYPEGCSGRV (ends and bridges not checked; cysteine pairing not given here) [Av3bM147]”, the “Degradation?” value in data set [1] was “Yes”. As to KSCCPCYWGGCPWGQNCYPEGCSGPKG [Av3bM148], in data set [1], the “Degradation?” value is recorded as “No” and the “degradation product during fermentation (HPLC)” value is recorded as “did not show any degradation product; also recorded: without apparent degradation products”. With “KSCCPCYWGGCPWGQNCYPEGCSGPN (ends and bridges not checked; cysteine pairing not given here) [Av3bM99]”, in data set [1], the “Degradation?” value is given as “Yes”. In the case of “KSCCPCYWGGCPWGQNCYPEGCSGGV (ends and bridges not checked; cysteine pairing not given here) [Av3bM146]”, the “Degradation?” value in data set [1] is on record as “Yes”.

Turning to “SSCCPCYWGGCPWGQNCYPEGCSGPT (ends and bridges not checked; cysteine pairing not given here) [Av3bM33]”, in the data set with houseflies, the Activity entry is given as “No”. On to “KSCCPCYWGGCPWGQNCYPEGCSGPR (ends and bridges not checked; cysteine pairing not given here) [Av3bM98]”, for which, in data set [1], the “Degradation?” value is listed as “No” and the “degradation product during fermentation (HPLC)” value was “did not show any degradation product; also recorded: no degradation product”. For the sequence “KSCCPCYWGGCPWGQNCYPEGCTGPG (ends and bridges not checked; cysteine pairing not given here) [Av3bM169]”, in data set [1], the “Degradation?” value is on record as “Yes”.

Consider “HSCCPCYWGGCPWGQNCYPEGCSGPK (ends and bridges not checked; cysteine pairing not given here) [Av3bM28]”, for which, in the data set on houseflies, the “housefly knock-down / insecticidal activity relative to Av3b” value is given as “without a concomitant reduction in housefly knock-down activity; also recorded: insecticidal activity” and the Activity result is given as “Yes”. “KSCCPCYWGGCPWGQNCYPEGCSGPH (ends and bridges not checked; cysteine pairing not given here) [Av3bM104]”: the “Degradation?” value in data set [1] is on record as “Yes”. Turning to “KSCCPCYWGGCPWGQNCYPEGCSGPE (ends and bridges not checked; cysteine pairing not given here) [Av3bM101]”, in data set [1], the “Degradation?” value is listed as “Yes”. “KSCCPCYWGGCPWGQNCYPEGCDGP (ends and bridges not checked; cysteine pairing not given here) [Av3bM172]”: the “Degradation?” value in data set [1] is “Yes”. As for “KSCCPCYWGGCPWGQTCYPEGCSGPK (ends and bridges not checked; cysteine pairing not given here) [Av3bM22]”, the Activity entry in the data set with houseflies is listed as “No”. “KSCCPCYWGGCPWGQNCYPEGCDGPT (ends and bridges not checked; cysteine pairing not given here) [Av3bM157]”: the “Degradation?” value in data set [1] is reported as “Yes”. With “KSCCPCYWGGCPWGTNCYPEGCSGPK (ends and bridges not checked; cysteine pairing not given here) [Av3bM21]”, the Activity result in the data set with houseflies is “No”.

On to “KSCCPCYWGGCPWGQNCYPEGCSGPQ (ends and bridges not checked; cysteine pairing not given here) [Av3bM102]”, for which, in data set [1], the “Degradation?” value is listed as “Yes”. On to “KSCCPCYWGGCPWGQNCYPEGCDGPA (ends and bridges not checked; cysteine pairing not given here) [Av3bM156]”, for which the “Degradation?” value in data set [1] is “Yes”. In the case of “KSCCPCYWGGCPWGQNCYPNGCSGPK (Av3bM23; VARIANT (1)..(26) Recombinant variant of Anemonia viridis Av3 peptide)”, in the data set with houseflies, the “housefly knock-down / insecticidal activity relative to Av3b” value was “without a concomitant reduction in housefly knock-down activity; also recorded: insecticidal activity” and the Activity result is given as “Yes”. With KSCCPCYWGGCPWGQNCYPEGCSGPKVI [Av3bM168], the “Degradation?” value in data set [1] was “Yes”. The same measure, in the same setting: for “KSCCPCYWGGCPWGQNCYPEGCDGPG (ends and bridges not checked; cysteine pairing not given here) [Av3bM171]” the value was “Yes”. Consider “KSCCPCYWAGCPWGQNCYPEGCSGPK (ends and bridges not checked; cysteine pairing not given here) [Av3bM27]”, for which, in the data set on houseflies, the “housefly knock-down / insecticidal activity relative to Av3b” value is on record as “behaved like Av3b; also recorded: insecticidal activity comparable to Av3b” and the Activity result was “Yes”.
